Measurements from US6576753B1, “DNA encoding human leukotriene C4 synthase” (The Brigham and Women's Hospital, Inc., priority 1994, dated 2003).
Positions count from the first letter of the chain named. Where two headings read alike, the source gives them in different places. Values belong to the compound of their own block, whether it stands above or below them.

Assays:
[1] = biological target: T1, LTC4 synthase (Homo sapiens, UniProt Q16873); experiment: Dose-response assay using MK886: conversion of LTA4-ME to LTC4-ME by lysates of transfected COS-7 cells; format: biochemical
T1 construct: expressed in transfected cells; host or cells: COS-7 cells (pcDNA3 clone from KG-1 library), cell lysate
T1 sequence (Q16873 1-150): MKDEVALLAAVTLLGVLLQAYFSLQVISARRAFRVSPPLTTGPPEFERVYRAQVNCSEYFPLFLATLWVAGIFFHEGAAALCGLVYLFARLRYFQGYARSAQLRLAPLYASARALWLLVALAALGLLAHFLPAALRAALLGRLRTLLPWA
Procedure: After 2.8 min more, solvent B was increased linearly to 90% over 2 min and was maintained at this level for an additional 10 min. UV absorbance at 280 nm and the UV spectra were recorded simultaneously. The retention times for PGB2 and LTC4-ME were 8.5 and 10.1 min, respectively.
DOSE-RESPONSE ASSAY USING MK886: Cell lysates of the COS-7 cell transfectant containing SEQ ID NO.:1 were incubated with 20 micromolar LTA4-ME, 20 mM GSH, 5 mM MgCl2 in HEPES buffer (pH 7.6), in the presence of 0-10 micromolar MK886 for 10 minutes at room temperature. Reactions were stopped by addition of 2 volumes of methanol containing 200 ng PGB2. Samples were analyzed by RP-HPLC.

[2] = biological target: T1, LTC4 synthase; conditions: high doses; Lam et al.; cited from earlier work
[3] = tested on: LTC4 synthase; experiment: Conjugation of LTA4-ME with GSH by solubilized microsomes of COS cells transfected with wild-type or mutant LTC4 synthase; conditions: for Function / Km: COS cell microsome; for conjugation function of transfected COS cell microsomes: compared to wild-type construct
Procedure: OF THE EXPRESSED PROTEINS: COS-7 cells were transfected with either wild-type LTC4 synthase cDNA or the mutated LTC4 synthase cDNA by DEAE-dextran transfection (Lam et al., Proc. Natl. Acad. Sci. USA., 91:7663, 1994). Three days after transfection, the cells were harvested by treatment with trypsin and suspended in microsomal buffer (50 mM HEPES buffer pH 7.9 containing 2 mM EDTA and 10 mM β-mercaptoethanol) at a concentration of 5×10^6 cells/ml. The cells were lysed by sonication with a Branson microtip sonicator (Danbury, Conn.) at a setting of 7. Cell lysates were centrifuged at 100,000×g for 60 min at 4° C., and the pellets (microsomes) were resuspended in microsomal buffer and were solubilized by the addition of 0.4% Triton X-102, 0.4% sodium deoxycholate (DOC), and 10% glycerol and stirring at 4° C. for 45 min.
The function of each mutant enzyme as well as the wild-type enzyme was first screened by the incubation of 1-10 μl of solubilized COS cell microsomes with 10 mM GSH and 20 μM LTA4-ME in 200 μl 50 mM HEPES buffer containing 10 mM MgCl2, pH 7.6. The reactions were carried out at room temperature for 10 min and stopped by the addition of 3 vol methanol containing 200 ng prostaglandin B2 (PGB2) as an internal standard. LTC4-ME levels in the samples were determined with high performance liquid chromatography (HPLC).
Reverse phase (RP)-HPLC was carried out with a model 126 dual pump system and model 167 scanning UV detector (Beckman Instruments) controlled by an Gateway 2000 P4D66 computer equipped with Beckman System Gold software. Samples were applied to a 5-μm 4.6×250-mm C18 Ultrasphere reverse phase column (Beckman Instruments) equilibrated with a solvent of methanol/acetonitrile/water/acetic acid (10:15:100:0.2, v/v), pH 6.0 (solvent A). Immediately after the sample was injected, the column was eluted at a flow rate of 1 ml/min with a programmed concave gradient (System Cold curve 6) to 20% solvent A and 80% solvent B (pure methanol) over 0.2 min with continuation isocratically for 5.8 min. Beginning at 6 min, solvent B was increased linearly to 100% over 0.2 min and was maintained at this level for 7 min more. The ultraviolet absorbance at 280 nm and the ultraviolet spectra were recorded simultaneously. The retention times for PGB2 and LTC4-ME were 7.4 and 8.9 min, respectively. LTC4-ME was quantitated by calculating the ratio of the peak area to the area of the internal standard PGB2.

[4] = tested on: LTC4 synthase; experiment: Enzyme kinetics of purified recombinant wild-type or mutant LTC4 synthase; format: biochemical, human; conditions: purified recombinant enzyme
Procedure: (§1) PURIFICATION AND KINETIC ANALYSIS OF SELECTED EXPRESSED PROTEINS: Recombinant LTC4 synthases were purified by S-hexyl GSH agarose affinity chromatography (Lam et al., Eur. J. Biochem., 238:606, 1996). Solubilized microsomes were loaded onto a 2.5-cm×1.5-cm open bed of S-hexyl GSH resin equilibrated with 50 mM HEPES, 1 mM EDTA, 5 mM β-mercaptoethanol, 0.1% Triton X-102, 10% glycerol, pH 7.6 (Buffer A) at 4° C. The column was washed sequentially with 5 volumes each of buffer A/0.3 M NaCl/20 mM GSH/0.1% DOC, buffer A/2.5 mM S-hexyl GSH/2.5 mM S-octyl GSH/0.1% DOC, and buffer A/0.1% DOC; and the enzyme was eluted with 5 fractions of 1 volume each of 15 mM probenecid in buffer A containing 0.1% DOC. The enzyme was purified nearly to homogeneity as determined by the presence in silver stained SDS-PAGE gels of a predominant 18-kDa protein band with a minor 34-kDa band; only the 18-kDa band interacted with anti-LTC4 synthase antibody on immunoblot analysis. After sequential concentration and dilution with a Microsep 10K centrifugal concentrator (Filtron Technology Corp., Northborough, Mass.) to remove probenecid, the protein concentration was estimated by staining a SDS-PAGE gel of the purified enzyme and a standard amount of lysozyme resolved in the same gel with Coomassie blue dye and comparing their intensities.
(§2) To examine the enzyme kinetics of recombinant wild-type or mutant LTC4 synthase, 3-100 ng portions of purified enzyme were incubated in 200 μl of HEPES buffer, pH 7.6, containing 10 mM MgC'2 with either 20 μM LTA4-ME and various concentration of GSH or with 10 mM GSH and various concentrations of LTA4-ME for 2 min at room temperature. The reactions were terminated by the addition of 3 vol of methanol containing 200 ng PGB2. Samples were then analyzed for LTC4-ME by RP-HPLC.

[5] = Binding of mutant protein to S-hexyl GSH agarose column; conditions: eluted with probenecid
Procedure: as §1

[6] = biological target: T2, LTC4 synthase (Homo sapiens, UniProt Q16873, Y93F); experiment: Effect of pH on enzymatic conjugation by wild-type and mutant enzyme; format: biochemical; conditions: microsomal assay, 5-fold more Y93F
T2 construct: made in house; host or cells: COS-7 cells
T2 sequence (Q16873 1-150 Y93F): T1 sequence (Q16873 1-150) with Y93F
Procedure: The study the effect of pH on enzymatic conjugation by wild-type and mutant enzyme, 1-μl or 5-μl (Y93F) samples of solubilized COS cell microsomes were incubated with 10 μM LTA4-ME and 10 mM GSH in bis-Tris propane buffer containing 10 mM MgCl2 at various pH levels. The reactions were carried out at room temperature for 2 min and were stopped by the addition of 3 vol of methanol and 10 μl of acetic acid. Product generation was quantitated by RP-HPLC as described above.

[7] = biological target: T2, LTC4 synthase; experiment: Enzyme kinetics of purified recombinant wild-type or mutant LTC4 synthase; format: biochemical
Procedure: as §1, §2

effect on LTC4 synthase activity in COS cell lysates ([1]; at a concentration of 10 μM): did not affect LTC4 synthase activity
Compound: C[C@H](C#Cc1ccc(Oc2ccc(F)cc2)o1)N(O)C(N)=O [A79175]

IC50 ([1]; 20 μM LTA4-ME, COS cell lysates, read-out: IC50, inhibition of conversion of LTA4-ME to LTC4-ME): < 3000 nM
inhibition of enzyme activity ([1]; at 10 μM): more than 90%
IC50 ([1]; transfected COS cell lysates, read-out: ID50, inhibition of LTC4 synthase activity): ~3000 nM
Compound: CC(C)c1ccc2c(c1)c(SC(C)(C)C)c(CC(C)(C)C(=O)O)n2Cc1ccc(Cl)cc1 [MK-886]
inhibition of LTC4 synthase activity [2]: could also inhibit LTC4 synthase activity when administered at high doses

Compound: C82V: LTC4 synthase point mutant
Function [3]: 100 % of WT
conjugation function of transfected COS cell microsomes [3]: do not affect conjugation function
conjugation function of transfected COS cell microsomes ([3]; listed as C82 to V82): None of the mutations affected conjugation function
Km ([3]; read-out: Km GSH): 2000 µM
Km ([3]; read-out: Km LTA4-ME): 10.9 µM
Vmax LTC4-ME [4]: 37.7 µmol/min/mg
Km ([4]; read-out: Km GSH): 900 µM
Km ([4]; read-out: Km LTA4-ME): 6.3 µM

Compound: R51H
Function [3]: 100 % of WT
conjugation function of transfected COS cell microsomes [3]: activity was not diminished
Km ([3]; read-out: Km GSH): 3800 µM
Km ([3]; read-out: Km LTA4-ME): 6.4 µM
Vmax LTC4-ME [4]: 20.0 µmol/min/mg
Km ([4]; read-out: Km GSH): 1500 µM
Km ([4]; read-out: Km LTA4-ME): 6.3 µM

binding to S-hexyl GSH agarose column [5]: bound to S-hexyl GSH
Compound: R51T: LTC4 synthase point mutant
Function [3]: 0 % of WT
conjugation function of transfected COS cell microsomes [3]: do not show conjugation activity
conjugation function of transfected COS cell microsomes ([3]; listed as Arg 51 to threonine): abolished the functional activity
Vmax LTC4-ME [4]: Inactive

Compound: WT: recombinant wild-type human LTC4 synthase (SEQ ID NO.:2)
Function [3]: 100 % of WT
Km ([3]; read-out: Km GSH): 500 to 2000 µM
Km ([3]; read-out: Km LTA4-ME): 6 to 20 µM
Vmax LTC4-ME [4]: 51.3 µmol/min/mg
Km ([4]; read-out: Km GSH): 1400 µM
Km ([4]; read-out: Km LTA4-ME): 7.4 µM

pH optimum of conjugation [6]: A shift in the optimum to a higher pH
Compound: Y93F: LTC4 synthase point mutant
Function [3]: 5 % of WT
conjugation function of transfected COS cell microsomes [3]: associated with a reduction in function
Km ([3]; read-out: Km GSH): 10000 µM
Km ([3]; read-out: Km LTA4-ME): 20 µM
reduction in Vmax ([7]; isolated recombinant enzyme, versus wild type): greater than 90%
catalytic efficiency relative to wild-type enzyme ([7]; purified recombinant enzyme): 1/260
Vmax LTC4-ME [4]: 1.4 µmol/min/mg
Km ([4]; read-out: Km GSH): 9900 µM
Km ([4]; read-out: Km LTA4-ME): 5.4 µM
